Assay [1] concerns the target T1, rHis-BoTNF-α (pET-30a(+)-BoTNF-α, E. coli BL21(DE3)) (牛 (bovine), UniProt Q06599 78-234).
T1 construct: Own construct; also called rHis-BoTNF-α纯化蛋白; not shown: N-terminal His tag and vector residues of pET-30a(+) up to the BamHI site
T1 sequence (looked up): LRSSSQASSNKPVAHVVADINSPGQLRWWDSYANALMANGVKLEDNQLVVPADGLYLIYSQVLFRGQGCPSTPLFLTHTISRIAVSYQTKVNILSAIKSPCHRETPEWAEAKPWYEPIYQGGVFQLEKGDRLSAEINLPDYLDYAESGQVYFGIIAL
Nature of the assay: Western blot with HRP-3C1 1:1000.

Assay [2] deals with T2, rBoIL-2 (Kingfisher-Biotech公司, rp0026B-005) (UniProt P05016 21-155).
T2 construct: Commercial protein
T2 sequence (looked up): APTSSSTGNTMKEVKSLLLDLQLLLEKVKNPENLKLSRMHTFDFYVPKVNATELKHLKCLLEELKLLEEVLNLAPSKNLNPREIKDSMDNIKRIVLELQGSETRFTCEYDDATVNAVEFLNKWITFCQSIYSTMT
As to the kind of experiment: indirect ELISA, coated protein, 3C1 hybridoma supernatant.

Assay [3] concerns the target T3, rBoIFN-γ (美国R&D公司, 2300-BG-02) (UniProt P07353 24-166).
T3 construct: Commercial protein; species read from the label Bo
T3 sequence (looked up): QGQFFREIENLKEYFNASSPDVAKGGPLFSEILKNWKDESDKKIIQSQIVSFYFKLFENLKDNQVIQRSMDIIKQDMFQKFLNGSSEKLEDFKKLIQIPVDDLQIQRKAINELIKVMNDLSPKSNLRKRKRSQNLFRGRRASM
The assay is described as above.

For assay [4], the target named is T4, rPoTNF-α (美国R&D公司, 690-PT-025) (UniProt P23563 77-232).
T4 construct: Commercial protein
T4 sequence (P23563 77-232 limits assumed): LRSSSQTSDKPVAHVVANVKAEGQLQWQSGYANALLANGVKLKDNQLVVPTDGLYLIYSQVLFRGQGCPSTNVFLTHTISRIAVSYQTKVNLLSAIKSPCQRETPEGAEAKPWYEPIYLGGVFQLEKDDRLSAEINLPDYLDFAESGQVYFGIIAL
The description is as above.

Assay [5] deals with T5, rhuTNF-α (PeproTech, 300-01A-50) (UniProt P01375 77-233).
T5 construct: Commercial protein
T5 sequence (P01375 77-233 limits assumed): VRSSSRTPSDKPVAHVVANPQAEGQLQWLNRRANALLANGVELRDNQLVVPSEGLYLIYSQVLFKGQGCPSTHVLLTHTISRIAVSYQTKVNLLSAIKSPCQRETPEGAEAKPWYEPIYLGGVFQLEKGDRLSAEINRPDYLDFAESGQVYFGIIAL
The description is as above.

The target of assay [6] is T6, 商品化rBoTNF-α (美国R&D公司, 2279-BT-025) (牛 (bovine), UniProt Q06599 78-234).
T6 construct: Commercial protein
T6 sequence (looked up): T1 sequence (looked up)
As to the kind of experiment: indirect ELISA, protein coated at 0.5μg/mL, 3C1 hybridoma supernatant.

The target of assay [7] is T7, 天然羊TNF-α (羊外周血单核细胞) (羊 (sheep)) (UniProt P23383).
T7 sequence (looked up): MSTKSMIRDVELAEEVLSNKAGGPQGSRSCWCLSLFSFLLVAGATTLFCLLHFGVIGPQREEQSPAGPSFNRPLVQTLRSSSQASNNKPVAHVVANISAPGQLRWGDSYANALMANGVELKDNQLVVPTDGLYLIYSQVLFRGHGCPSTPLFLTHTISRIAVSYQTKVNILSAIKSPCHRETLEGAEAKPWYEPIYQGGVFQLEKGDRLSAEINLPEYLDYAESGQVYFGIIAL
As to the kind of experiment: intracellular flow cytometry, PMA/ionomycin-stimulated sheep PBMC, FITC-3C1 0.5μg/mL.

In assay [8] the target is T8, 天然牛TNF-α (牛外周血单核细胞) (牛 (bovine)) (UniProt Q06599).
T8 sequence (looked up): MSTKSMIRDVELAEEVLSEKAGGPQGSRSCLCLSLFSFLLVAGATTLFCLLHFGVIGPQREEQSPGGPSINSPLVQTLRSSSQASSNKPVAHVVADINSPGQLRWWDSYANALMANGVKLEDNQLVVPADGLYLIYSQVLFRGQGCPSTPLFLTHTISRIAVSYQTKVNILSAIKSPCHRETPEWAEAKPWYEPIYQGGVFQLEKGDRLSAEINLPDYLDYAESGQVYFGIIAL
As to the kind of experiment: intracellular flow cytometry, PMA/ionomycin-stimulated bovine PBMC, FITC-3C1 0.5μg/mL.

Assay [9] deals with T7, 天然羊TNF-α (羊外周血单核细胞) (羊 (sheep)). Nature of the assay: intracellular flow cytometry, unstimulated sheep PBMC (control well), FITC-3C1 0.5μg/mL.
Assay [10] addresses T8, 天然牛TNF-α (牛外周血单核细胞) (牛 (bovine)). As to the kind of experiment: intracellular flow cytometry, unstimulated bovine PBMC (control well), FITC-3C1 0.5μg/mL.
In assay [11] the target is T9, rGST-BoTNF-α (pGEX-6p-1-BoTNF-α, E. coli BL21) (牛 (bovine)) (UniProt Q06599).
T9 sequence (looked up): T1 sequence (looked up)
As to the kind of experiment: indirect ELISA, rGST-BoTNF-α coated at 0.5μg/mL, serially diluted 3C1 ascites, cut-off P/N≥2.1.

B1: 单克隆抗体3C1 (具牛、羊交叉反应的抗TNF-α单克隆抗体, 杂交瘤 CCTCC NO:C2019129) (antibody, V domains shown)
VH: QVQLKQSGPGLVQPSQSLSITCTVSGFSLTNFSVHWVRQPPGKGLEWLGVMWSGGSTDYNAAFISRLSIIKDNSKSQVFFKMNGLQADDTAIYYCARSGPYYYSLDYWGQGTSVTVSS
VL: DIQMTQSPASLSASVGETVTITCRASENIYIYLAWYQQKQGKSPQLLVYNAKTLAEGVPSRFSGSGSGTQFSLNINSLQPEDFGSYYCQHHYGTPWTFGGGTKLEIK
notes: Used as ascites, hybridoma supernatant, HRP-labelled (HRP-3C1) or FITC-labelled (FITC-3C1) antibody, depending on the assay; also called mAb 3C1; MAb 3C1
Regarding B1, the binding result in assay [1] is “binds”; in assay [2] it was “no binding (tested: 0.5μg/mL (coating))”; in assay [3], “no binding (tested: 0.5μg/mL (coating))”; in assay [4] it was “no binding (tested: 0.5μg/mL (coating))”; in [5], “no binding (tested: 0.5μg/mL (coating))”; in assay [6] it was “binds”. Besides, the 分泌羊TNF-α细胞比例 (percent stained cells) was determined as 13.4% in assay [7] and 0.027% in [9]. Further, the 分泌牛TNF-α细胞比例 (percent stained cells) in assay [8] came to 18.4%; in assay [10] it was 0.051%. The 效价 (ascites titre) (dilution (1:x)) in assay [11] worked out at 1.31e+07.

For the origin of these results see patent CN110760483A (UNIV YANGZHOU, dated 2020).
